Results on two molecules are retold here after article PMC7689490, “Designed CXCR4 mimic acts as a soluble chemokine receptor that blocks atherogenic inflammation by agonist-specific targeting” (Nature Communications, 2020).

Several values for one entry are separate records, joined by “and”; a condition that tells them apart may be missing. Equal values may be shown once.

Assay [1] has as its target Fluos-msR4M-LS (fluorescein-labelled ECL1[97–110] and ECL2[182–196] joined only by a disulfide bridge, no synthetic linker) (human), P61073. The assay is described as follows: other fluorescence titration; Fluos-labelled CXCR4 ectodomain peptide at 5 nM titrated with unlabelled MIF, MIF(10xAla), CXCL12 or MIF peptide fragments; 10 mM sodium phosphate, pH 7.4, 1% HFIP; emission at 522 nm; apparent KD, 1/1 binding model. The note with it: remark: other sources report otherwise.

The target of assay [2] is Fluos-msR4M-LS (human), P61073. The assay is described as follows: other fluorescence titration; 5 nM Fluos-labeled ectodomain peptide titrated with unlabeled MIF, MIF peptide or CXCL12; 10 mM sodium phosphate, pH 7.4, 1% HFIP; emission at 522 nm; apparent KD, 1/1 binding model; one constant for each of three curves. The note with it: remark: other sources report otherwise.

B1: macrophage migration-inhibitory factor (MIF), recombinant human, unlabelled, P14174 1-115 (natural protein)
chain: MPMFIVNTNVPRASVPDGFLSELTQQLAQATGKPPQYIAVHVVPDQLMAFGGSSEPCALCSLHSIGKIGGAQNRSYSKLLCGLLAERLRISPDRVYINYYDMNAANVGWNNSTFA
modifications: here or on the partner: disulfide bridge from Cys-109 to Cys-186 of the ECL2 chain; C-terminal amide; Fluos (fluorescein) label, chain and position not stated | disulfide bridge from Cys-186 to Cys-109 of the ECL1 chain; C-terminal amide
As for B1, the Kd in assay [1] amounted to 6.9 nM.

B2: macrophage migration-inhibitory factor (MIF), recombinant human, P14174 1-115 (natural protein)
chain: MPMFIVNTNVPRASVPDGFLSELTQQLAQATGKPPQYIAVHVVPDQLMAFGGSSEPCALCSLHSIGKIGGAQNRSYSKLLCGLLAERLRISPDRVYINYYDMNAANVGWNNSTFA
modifications: here or on the partner: disulfide bridge from Cys-109 to Cys-186 of the ECL2 chain; C-terminal amide; Fluos label on the molecule (chain and position not stated) | disulfide bridge from Cys-186 to Cys-109 of the ECL1 chain; C-terminal amide
With B2, the Kd in assay [2] is 9 nM and 5 nM.
